# Measured values reported in the DeepSol protein solubility set.
# Assay: soluble on expression in E. coli; label from the status in PepcDB or PDB records
row,Sequence,soluble on expression in E. coli
1,MAASRDIFAPDFRRRPYWWEGYEPPECGEDTLPASADVAIVGGGYTGVCCALALREAGIEAVVLEAGRPGEGASTRSGGQVSGGVNVQKKALAAVGESAGQRAERLAARLRDAAASMAYVESLIERYAIECGWHRTGRLTTMWVPAHYQSWQARLDQLNACTGSQARMIPREELAAEIGSSVYHGAALIEHAGHLQPAQLYGGMLRAARDAGARVLGRTPVERIERRAGGYDVHTARGTVRAGQVVIATNGYTGANLGGLKRRIVPVCTHMITTEALPPDLAASLLPTNRAVSESRRVVNHYRLSPDGRRLLFGGRARFVPTDEATTARLLYRAMLKRFPQLAGTRITHSWGGNVAMTLDSMPHIGGADGLHYALGCNGSGVAMMSYLGHCVGRKIATQSGEPINAFDMGEIPGHPFYFGNPWFLFAIGSWYQARDAYDHWRARLEHHHHHH,not soluble
2,MAAVSIVFEAPDNYGGAPAVSKKPIDFDHLAQQTMGDKDLEIEVLQLFSRSARAALHEMAGADNKTVTATAHRLKGSAQAVGASAVSAAAAAVEEKGNDSALIAKLAAAIVEAENFILKLCR,not soluble
3,MACFLARFQFISPDSPATKAVTLQIKRSGQDMYACITGHSYSAPVFTVECKLKPDAEWVRDCMASFKEQMEAEGFLLNEGTSESTLPAQPAKKADLTLHDISAFFHLPVKAAASCLGVSQTYLKILCRRLGIDRWPYRKVASVKKHM,not soluble
4,MADDLGDEWWTQGDNSDVPEVEEETEHAEEKQPIKSTPKKRKVEKQIPDATKKKKATVKKECFITQERSEEKPDNESNKNKKRRKKKKTITDVLTSSKPVPGSPVDLVSLLKTYHSQTRSVIEQEELTLQDSCFLSCNDLTHSLSSYLKEVCPKWAKMQKQHTQTSSVVLLIVCGSALRTIDLIKQLVTFKGQAKVLKLFAKHIKVEEQIKSLSKGVTHIAVGTPGRICALLEKEGLTVQGLRYLVLDWNYRDQKQRRMVDVPEVKGDLLKMMDQGLIQSCREGTVKIGLF,not soluble
5,MADIVQLKENGVVKYMKTHADAIDGVEGKLVKAVGNETVLGTKNFQDGIQIGGKSVSVNAKPTYEVVKDYWDGTGAYLTESQSVTISNSSNVDEIVLIFSRYNDNGGGIVHSIPVTPNITKLKYELPAVAWVGSASTDPTIAYKKISISKSGTSLVITGDTANTLNEANKKIVFREIGVMRRK,not soluble
6,MADKLDEIIDKVASGQRKKDTIEDTEEEGTRKRKIEQFEDIERPNELSGFKKQKIEENSEIHAEETEESVEAQMVMKKPSEEPELKRRKILIHMEPSITETNPMRIWTVADDLALLTAVAHVQCIRFIHNSLTFSRKFTFSDVEERYCQLMFDEEISKSAKVRLDAMPHRLKAQIEARTPFTRNEERTLMELAENQLKNARKERQDVENHTVLTILHFKKILDGNRQSFHKSRTPQVLSDHYRRIKGYRSEQGNNYNWQALEALTDGNTMDFDINAPLQAARSRYAAISRRPALSGILNRFKTSGSVPDNAIAMINGQFLQYAMTGKSVTMGRASLNEKIDIDLSKEGPATKVLEGRRQLFPVNKR,soluble
7,MADLFDGMKRRMDALIAERFGMKVNINGTDCIVVESDFLAELGPVEGNGKNVVVFSGNVIPRRGDRVVLRGSEFTVTRIRRFNGKPQLTLEENNGGKGA,soluble
8,MADLLDKIMGSSSSNRIPKRDNRMNQDKDEPTSKRSAPMFSTPKSTTPIGRDSFATMDTMNVQMNMFPVDIKDMPHKIQRFQVDVIVCSSNGKQINANLGVLAAKGDVNSHNRRLAQYYIMRTVHDKLLVKFSGKSHHFLAYDCAATLYLPEGVYTGDDQEEVTLTIDDFPKEEWKFVSKLSRRKDDSYLVVLKPAGFVYTQGEVAQEEANRMELTRIIEIVTSQKLNNEDYLQFGNATFPRLSPPHSEPDAISEIRSGFAKVSRLSQNGGGKAFMTVDTKISPFYKDTSVIKFSSNKLSEMKGGGGGRGGYGRSDSRDSRGGYRGGRSDSRDFRGVYGNRGGNDRYRDESRGRRDMYDSRRDSGSSNGADYSPSDAAELEHAFGERGNTKRCIEEALKGLDVECTHLKGNLIRVSSIAENNAENTSFMMKDDKGEREVTVAEYFLLQYNIKLKYPRLPLVVSKRFKHESFFPMELLRIAPGQRIKVNKMSPTVQSAMTGRNASMPQHHVKLVQDILRDNLKLEQNKYMDAFGIKLMSTEPIQMTAKLLPPAQIKFKGQTYMPDMSRPAFRTQDKFVEPARIRKIGIVVFDNCIQMRQAEDFCDKLSNFCRDNGITVEKDSRDWSIRELNSSDSVAIQNLMKKWLDDRVDILVGIAREKKPDVHDILKYFEESIGLQTIQLCQQTVDKMMGGQGGRQTIDNVMRKFNLKCGGTNFFVEIPNAVRGKAVCSNNETLRKKLLEHVQFIGFEISHGASRTLFDRSRSQMDGEPSVVGVSYSLTNSTQLGGFTYLQTQKEYKLQKLDEFFPKCVRSYKEHSKTLPTRIVIYRVGAGEGNFNRVKEEVEEMRRTFDKIQPGYRPHLVVIIAQRASHARVFPSCISGNRATDQNIPSGTCVENVLTSYGYDEFILSSQTPLIGTVRPCKYTILVNDAKWSKNELMHLTYFRAFGHQVSYQPPSVPDVLYAAENLAKRGRNNYKIHQRYVNLQAVENRIIKDHSELINEDMREELAAAIVDEMSVAMNGMTIPKRNFWA,not soluble
9,MADNDFLSGEAIMVFKKEILDSHSDFTRSLSHQSASPEAYDQENVFSQDFQPFMKQDKETQNSASQPTSEQSLANRDPCTVPDDLREEMMRQRRKEDAFKTALCDAYKRSQACSYGDQCRFAHGVHELRLPMNPRGRNHPKYKTVLCDKFSMTGNCKYGTRCQFIHKIVDGNAAKLASGAHANTSSKSPARNAAAHNHSLFVPQGSTDRSMDLNQSLPIRQSDLVRAFARATRLDVSGYNSTAQLAQYFESQFQRIQQLSSHHH,not soluble
10,MADNVAGNDRLIWIDLEMTGLDTDRDSIIEIATIVTDAQLNVLAEGPELAIAHSLETLEAMDEWNRNQHRRSGLWQRVLDSQVTHAQAEAQTVAFLGEWIRAGASPMCGNSICQDRRFLHRQMSRLERYFHYRNLDVSTIKELARRWAPAVASGFAKSSAHTALSDVRDSIDELRHYRQFMGTLGGDNGGGVQN,soluble
11,MADRKLVVVFGATGAQGGSVARALLEDGTFRIRVVTRNPEQRAAKELKQQGAEVVRGDQDDAASMELALAGAHATFIVTNYWETCSQDREVQQPHQWDQVFKQGKLLADLAKRLGLHYVVYSGLENIRKLTAGKLAAGHFDGKGEVEEYFRDIGVPMTSVRLPCYFENLLSYFLPQKAADGKSFLLDLPMGDVPMDGMSVSDLGPVVLSLLKKPEEYVGQNIGLSTCRHTAEEYAALLSKHTGKAVHHAKTTPEDYEKLGFQGAQDLANMFRFYTLKPDRNIHLTLRLNPKAQTLDQWLEQHKGDFAQL,soluble
12,MADSTKAGLKKPAFTKVDQLRPGTSGHNVNVKIVSTKMVLQKGRADGPQARQLRISECIVGDETGVIVFTARNDQVDLMKEGSTVTLRNAKIDMYKGSMRLAVDKWGRVEVTEPASFKVKEDTNMSLIEYELVNVVE,soluble
13,MADTVKLFPENLVTYKLLGEPDGPHYAHYDLVGGRLVVSKKCVSEAPVKKDAISV,not soluble
14,MADVEDGEETCALASHSGSSGSKSGGDKMFSLKKWNAVAMWSWDVECDTCAICRVQVMDACLRCQAENKQEDCVVVWGECNHSFHNCCMSLWVKQNNRCPLCQQDWVVQRIGKLEHHHHHH,soluble
15,MADYTTIAAQPRNEFGKGFARRLRVAGQVPGVIYGVDVEAPIHFSINRLELHAVLRAHGVNAIIELDIEGEKHLTMIKHVDQNVLTLNADHVDLLAIKRGEKVEVEVPVVLTGETAPGTTLVQDADVVLVEADVLSIPEEITFSVEGLDVDSKVLAGDLAMPANTSLVADAETVIASVNHEEVAEEAEETEGEDAEEAPAAEGEE,soluble
16,MAEDLYKRLNTVDRLFTLALDLHSHTDLAAQTLMKSGKVHSIERVETDMLYQNHDKKFHLRSREFLDFPQNYCDLIVSLLSLQLTNDTPGVLSQIKNILKPDGLFLAVMAGVGTLSELRECLLQAEIEIYGGASPRIYPFADIRAVGALLQRVGFALPVADIEDVTIRYDTMFDLINDLRAMGMQNALINRSRRPVSKRFFLRAAEIYAKRFSDLDGRIRAHFSFIWLSGWAPHPNQQKPIQPGSAQISLADVLVKQSKKT,not soluble
17,MAEPARARPKITPETQHYWDGAKQGELRLQRCDSCAHAYFPPRPFCPKCGSREVSVFKASGKGTLYSYVINHRPLAAGFTEPYAIAVVELEEGPRMMSNILECPQTPEALELDMKLEVTFQKIDDNLTLPQFRPAKG,not soluble
